Molecular target: T1, V5–AURKB, expressed in HEK293T cells (UniProt Q96GD4 1-344)
T1 construct: Aurora kinase B (AURKB), wild type; plasmid pDEST3.1_nV5-AurkB provided by Malumbres [65]; also called Aurora B; Aurora kinase B; source: HEK293T, transfected, in lysate
Assay: co-IP; immunoprecipitation of V5-AURKB from extracts of HEK293T cells co-transfected with GST-VRK1 or HA-VRK1, WT or kinase-dead; VRK1 detected by immunoblot, quantified
Conditions: partners not purified

T1 sequence (Q96GD4 whole entry): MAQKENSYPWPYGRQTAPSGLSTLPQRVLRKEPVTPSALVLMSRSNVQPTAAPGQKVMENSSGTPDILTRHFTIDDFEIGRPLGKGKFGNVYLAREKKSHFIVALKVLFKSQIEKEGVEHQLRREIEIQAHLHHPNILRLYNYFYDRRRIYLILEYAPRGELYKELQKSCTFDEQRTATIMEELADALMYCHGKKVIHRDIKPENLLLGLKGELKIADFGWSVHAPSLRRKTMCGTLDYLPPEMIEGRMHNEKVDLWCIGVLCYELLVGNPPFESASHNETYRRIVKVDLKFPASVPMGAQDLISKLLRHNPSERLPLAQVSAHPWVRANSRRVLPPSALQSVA

B1: HA–VRK1–K179E, kinase-dead, expressed in HEK293T cells (enzyme, human, UniProt Q99986 1-396, looked up)
chain: MPRVKAAQAGRQSSAKRHLAEQFAVGEIITDMAKKEWKVGLPIGQGGFGCIYLADMNSSESVGSDAPCVVKVEPSDNGPLFTELKFYQRAAKPEQIQKWIRTRKLKYLGVPKYWGSGLHDKNGKSYRFMIMDRFGSDLQKIYEANAKRFSRKTVLQLSLRILDILEYIHEHEYVHGDIEASNLLLNYKNPDQVYLVDYGLAYRYCPEGVHKEYKEDPKRCHDGTIEFTSIDAHNGVAPSRRGDLEILGYCMIQWLTGHLPWEDNLKDPKYVRDSKIRYRENIASLMDKCFPEKNKPGEIAKYMETVKLLDYTEKPLYENLRDILLQGLKAIGSKDDGKLDLSVVENGGLKAKTITKKRKKEIEESKEPGVEDTEWSNTQTEEAIQTRSRTRKRVQK
notes: Vaccinia-related kinase 1 (VRK1), kinase-dead mutant K179E; plasmid pCEFL-HA-VRK1-K179E; also called HA–VRK1–KD; pCEFL–HA–VRK1–K179E; source: HEK293T, transfected, in lysate
fold binding against active VRK1: ~3 fold

B2: GST–VRK1 (K179E), kinase inactive, expressed in HEK293T cells (enzyme, human, UniProt Q99986 1-396, looked up)
chain: MPRVKAAQAGRQSSAKRHLAEQFAVGEIITDMAKKEWKVGLPIGQGGFGCIYLADMNSSESVGSDAPCVVKVEPSDNGPLFTELKFYQRAAKPEQIQKWIRTRKLKYLGVPKYWGSGLHDKNGKSYRFMIMDRFGSDLQKIYEANAKRFSRKTVLQLSLRILDILEYIHEHEYVHGDIEASNLLLNYKNPDQVYLVDYGLAYRYCPEGVHKEYKEDPKRCHDGTIEFTSIDAHNGVAPSRRGDLEILGYCMIQWLTGHLPWEDNLKDPKYVRDSKIRYRENIASLMDKCFPEKNKPGEIAKYMETVKLLDYTEKPLYENLRDILLQGLKAIGSKDDGKLDLSVVENGGLKAKTITKKRKKEIEESKEPGVEDTEWSNTQTEEAIQTRSRTRKRVQK
notes: Vaccinia-related kinase 1 (VRK1), kinase-dead mutant K179E; also called GST-VRK1 KD; kinase-dead VRK1 (K179E); source: HEK293T, transfected, in lysate
fold binding against active VRK1: ~3 fold

From publication PMC6003988, “VRK1 and AURKB form a complex that cross inhibit their kinase activity and the phosphorylation of histone H3 in the progression of mitosis” (Cellular and Molecular Life Sciences: CMLS, 2018)
